Biological target: UAF (Rrn5-Rrn9-Rrn10-Uaf30-H3-H4);TBP (TATA-box-binding protein) ((budding yeast);(budding yeast)) (UniProt Q02983+P53437+P38204+Q08747+P61830+P02309+P13393)
Assay: cryo-EM 2.8 A
Conditions: 30 mM Hepes-NaOH pH 7.5, 30 mM sodium citrate pH 6.0, 250 mM KCl, 2 mM DTT; filter binding 1 h at 4 C; footprinting on ice, then 2.5 mM MgCl2, 0.5 mM CaCl2 …

Sequence: GAAAAAAAAAATATACGCTAAGATTTTTGGAGAATAGCTTAAATTGAAGTTTTTCTCGGCGAGAAATACGTAGTTAAGGCAGAGCGACAGAGAGGGCAAAAGAAAATAAAAGTAAGATTTTAGTTTGTAATGGGAGGGGGGGTTTAGTCAT (double strand) [35S rRNA promoter -190/-40 (cryo-EM DNA)]
- binding: binds

Source: paper PMC9020658
